# Reference: article PMC9754112 (mAbs, 2022)
# B1: JS007, humanized IgG1 anti-CTLA-4 monoclonal antibody (antibody, V domains shown)
# VH: QVQLQESGPGLVKPSQTLSLTCTVSAYSITSGYYWNWIRQHPGKGLEWIGYIGYDGSNNYNPSLKSRVTISRDTSKNQFSLKLSSVTAADTAVYYCARDYYSGYFDSWGQGTTLTVSS
# VL: DIQMTQSPSSLSASVGDRVTITCRASQNVGTYVAWYQQKPGKVPKPLIYSTSYRYSGVPSRFSGSGSGTDFTLTISSLQPEDVATYFCHQYDTYPLTFGAGTKLELK
# Tests used:
# [1] = target: recombinant human CTLA-4-His-tag protein (Homo sapiens (Human).) (UniProt P16410); test: SPR
# [2] = target: recombinant human CTLA-4-His-tag protein (Homo sapiens (Human)., UniProt P16410); test: SPR
# recombinant human CTLA-4-His-tag protein, sequence (P16410 36-161): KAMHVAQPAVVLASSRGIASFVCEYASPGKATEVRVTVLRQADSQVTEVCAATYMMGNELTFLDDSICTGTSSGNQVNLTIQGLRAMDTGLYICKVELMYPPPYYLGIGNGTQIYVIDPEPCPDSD
Molecule,Kd [1],Kd [2]
ipilimumab (antibody),16.1 nM,
B1,,0.21 nM
